# B1: fecIR Fur box, E. coli 83972 (dsDNA)
# DNA 1: TCCAATTGTAATGATAACCATTCTCATATTAATATGACTACGTGA
# DNA 2: TCACGTAGTCATATTAATATGAGAATGGTTATCATTACAATTGGA
# Target: T1, Fur (ferric uptake regulator) (Escherichia coli (strain of the fur …, UniProt P0A9A9 1-148))
# T1 sequence: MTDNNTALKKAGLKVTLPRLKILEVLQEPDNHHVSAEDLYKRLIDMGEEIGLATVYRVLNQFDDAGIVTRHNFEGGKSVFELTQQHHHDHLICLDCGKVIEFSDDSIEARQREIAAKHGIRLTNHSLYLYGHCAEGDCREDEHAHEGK
# Test: EMSA; dimer and tetramer complexes; EMSA as in cited ref 52, binding buffer not given; annealing buffer 10 mM Tris-HCl, 50 mM NaCl, 1 mM EDTA
# Conditions: protein: recombinant; tags: IMPACT system (intein tag, self-cleaved; no residual tag stated); chain copies: 4; label: Cy3 at 3' end of S3 as printed; blunt
binder,measurement,value
B1,binding result,binds

# Source: article PMC2928814, “Host Imprints on Bacterial Genomes—Rapid, Divergent Evolution in Individual Patients”
